# Test results reported in patent US20240252614A1 (Pfizer, published 2024).
# B1: hMPV-2 mAb (antibody, V domains shown)
# VH: QVQLQQSGAEVKKPGASVKVSCKASGYTFTSYGISWVRQAPGQGLEWMGWISGYNGNTNYAQTFQGTFTMTTDTSTSTAYMELRRLRSGDTAVYYCARDRYYASGSYNGMDVWGQGTTVTVSS
# VL: QSALTQPPSASGAPGQRVTVSCSGSSSNVGSSSVYWYQQLPGTAPKLLIYRNNQRPSGVPDRFSGSKSGTSASLAISGLRSEDEADYYCAAWDDSLSGWVFGGGTKLTVLG
# notes: human IgG1
# Experiments:
# Test in all cases: BLI, 63C stress
# hMPV135 = biological target: T1, hMPV135 (hMPV B, UniProt Q6WB98 19-102)
# T1 construct: T49I, S149T, A459P
# Procedure: (§1) Conformation integrity of hMPV B F protein mutants were evaluated by a thermal stress experiment. Crude cell culture supernatants were normalized based on the results of the titer quantitation and then incubated for 1 hour at room temperature and two higher temperatures. For the testing of hMPV B single mutants, the two temperatures were 53° C. and 56° C. After the incubation, the protein mutants were probed with prefusion specific monoclonal antibody hMPV-2 by OCTET HTX. Anti-Human IgG Fc Capture (AHC) biosensors were first equilibrated in PB before being dipped into more PB for to establish the initial baseline. Biosensors were incubated with hMPV-2 before being equilibrated in PB to establish the experimental baseline. The mAb-bound biosensors were then dipped into the thermal stresses cell culture supernatants for 5 minutes.
# hMPV140 = biological target: T2, hMPV140 (hMPV B, UniProt Q6WB98 19-102)
# T2 construct: T49I, L141C-A161C, T411C-Q434C, A459P
# Procedure: as §1
# hMPV132 = biological target: T3, hMPV132 (hMPV B, UniProt Q6WB98 19-102)
# T3 construct: L141C-A161C, S149T, G239A, T411C-Q434C, A459P
# Procedure: as §1
# hMPV144 = biological target: T4, hMPV144 (hMPV B, UniProt Q6WB98 19-102)
# T4 construct: T49I, L141C-A161C, S149T, A459P
# Procedure: as §1
# hMPV B F WT Control = hMPV B F WT Control (hMPV B, UniProt Q6WB98 19-102)
# Procedure: as §1
# hMPV127 = biological target: T5, hMPV127 (hMPV B, UniProt Q6WB98 19-102)
# T5 construct: A140C-S149C, G239A, T411C-Q434C, A459P
# Procedure: as §1
# hMPV119 = biological target: T6, hMPV119 (hMPV B, UniProt Q6WB98 19-102)
# T6 construct: T49I, T150C-R156C, A459P
# Procedure: as §1
# hMPV117 = biological target: T7, hMPV117 (hMPV B, UniProt Q6WB98 19-102)
# T7 construct: T150C-R156C, A459P
# Procedure: as §1
binder,measurement,setting,value
B1,Response Shift,hMPV135,-0.015 nm
same,Response Shift,hMPV140,0.747 nm
same,Response Shift,hMPV132,0.606 nm
same,Response Shift,hMPV144,-0.015 nm
same,Response Shift,hMPV B F WT Control,0.017 nm
same,Response Shift,hMPV127,0.696 nm
same,Response Shift,hMPV119,0.017 nm
same,Response Shift,hMPV117,0 nm
